According to paper PMC5156911, “Structural implications of Ca^2+-dependent actin-bundling function of human EFhd2/Swiprosin-1” (Scientific Reports, 2016):
No end group written: not given here.

B1: CC1: EFhd2 coiled-coil domain (residues 199-240) with CysGlyGly at the N-terminus (domain or fragment, human)
chain: CGGQAINVSSRFEEEIKAEQEERKKQAEEMKQRKAAFKELQSTFK
notes: engineered CysGlyGly at the N-terminus of the fragment; human EFhd2/Swiprosin-1 predicted coiled-coil domain, residues 199-240; source: E. coli, purified (pGEX-4T-1; GST removed by thrombin); not shown: GST, N-terminal, cleaved
B2: CC2: EFhd2 coiled-coil domain (residues 199-240) with GlyGlyCys at the C-terminus (domain or fragment, human)
chain: QAINVSSRFEEEIKAEQEERKKQAEEMKQRKAAFKELQSTFKGGC
modifications: also: disulfide-linked dimer via Cys
notes: human EFhd2/Swiprosin-1 predicted coiled-coil domain, residues 199-240; engineered GlyGlyCys at the C-terminus of the fragment; source: E. coli, purified (modified pET-21a, same procedure as the other EFhd2 proteins); not shown: His6, N-terminal, kept

Molecular target: the molecule itself
Assay: cross-linking; disulfide cross-linking of engineered terminal Cys residues; purified fragments on SDS-PAGE under non-reducing conditions (only a monomer band under reducing conditions)

Protein | stoichiometry N
B1 | 2
B2 | 2
